From patent US20230250193A1 (PROVIVA THERAPEUTICS HONG KONG, published 2023)

Biological target: T1, human FAPα (fibroblast activation protein-α) expressed on cells (human, UniProt Q12884 1-760)
T1 construct: also called cells expressing FAP
T1 sequence: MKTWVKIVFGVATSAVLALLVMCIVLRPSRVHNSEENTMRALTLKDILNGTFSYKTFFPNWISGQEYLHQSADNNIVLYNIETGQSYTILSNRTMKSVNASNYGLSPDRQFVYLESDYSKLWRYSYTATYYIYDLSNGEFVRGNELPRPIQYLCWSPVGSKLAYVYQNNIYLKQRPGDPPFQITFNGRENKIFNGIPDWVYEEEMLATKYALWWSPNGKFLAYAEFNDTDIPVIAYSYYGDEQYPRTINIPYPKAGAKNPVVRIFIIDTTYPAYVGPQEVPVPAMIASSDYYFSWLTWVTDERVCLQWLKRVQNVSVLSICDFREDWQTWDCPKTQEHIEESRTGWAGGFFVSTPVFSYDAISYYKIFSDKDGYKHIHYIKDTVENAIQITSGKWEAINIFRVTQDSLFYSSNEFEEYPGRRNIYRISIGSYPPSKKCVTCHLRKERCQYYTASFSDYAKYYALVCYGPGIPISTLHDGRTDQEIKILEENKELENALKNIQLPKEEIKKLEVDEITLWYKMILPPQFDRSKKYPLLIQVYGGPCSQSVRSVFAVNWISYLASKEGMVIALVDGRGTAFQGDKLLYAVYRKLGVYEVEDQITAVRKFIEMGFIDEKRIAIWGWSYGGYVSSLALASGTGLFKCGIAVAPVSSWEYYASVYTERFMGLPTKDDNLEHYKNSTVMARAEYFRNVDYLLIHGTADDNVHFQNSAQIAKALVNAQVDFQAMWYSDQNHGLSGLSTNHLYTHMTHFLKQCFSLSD
Assay: flow cytometry on FAPα-expressing cells, PE-labeled anti-human IgG detection
Description: FACS analysis. FACS analysis was performed for purified antibodies. Binding of Expi293 expression supernatant or purified antibodies to FAPα and/or B7H3 expressing cells was determined by flow cytometry. lx […] were incubated for 1 hour at 4° C. with purified antibodies. After washing twice with cold FACS buffer (PBS containing 1% BSA and 0.1% sodium azide), cell surface bound antibody was detected by incubating the cells with phycoerythrin (PE)-labeled anti-human IgG antibody (Jackson Immuno, Cat #109-116-098) for 1 hour at 4° C. Cells were washed twice in FACS buffer and analyzed using Guava EasyCyte HT (Merck Millipore).

- binding result: binds
B1: P28832158 (antibody, human IgG1, kappa, V domains shown)
VH: QVQLVQSGAEVKKPGASVKVSCKASGYTFTMNIIHWVRQAPGQGLEWMGWIHPGSGAIKYAQKLQGRVTMTTDTSTSTAYMELRSLRSDDTAVYYCARHGGTGRGAMDYWGQGTLVTVSS
VL: EIVLTQSPGTLSLSPGERATLSCRASQSVSTSAYSYMHWYQQKPGQAPRLLIYLASNLESGIPDRFSGSGSGTDFTLTISRLEPEDFAVYYCQQSRELPYTFGQGTKLEIKR
notes: Produced in Expi293 cells; also called M-87_G1; VH6.32/VL7.00
